Assay results from patent publication US20050037969A1 (ARBOR VITA, published 2005).
Values belong to the binder of their own block, whether it stands above or below them. Ends that are not written are not given here. * marks the point of attachment. Biotin = O=C1N[C@H]2[C@H](CS[C@H]2CCCCC(=O)*)N1

How the values were obtained:
[1] = biological target: T1, GST-TAX-IP43 PDZ domain fusion protein (human, UniProt Q13884 109-180); assay: A/G plate assays, Table 2 matrix
T1 construct: also called TAX43; not shown: glutathione S-transferase encoded by vector pGEX-3X (Pharmacia)
T1 sequence: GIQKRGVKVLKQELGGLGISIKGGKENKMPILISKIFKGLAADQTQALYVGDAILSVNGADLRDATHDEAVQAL

[2] = biological target: T2, GST-cytohesin binding protein PDZ domain fusion protein (Homo sapiens (Human), UniProt O60759 74-165); assay: A/G plate assays, Table 2 matrix
T2 construct: also called CBP; not shown: glutathione S-transferase encoded by vector pGEX-3X (Pharmacia)
T2 sequence: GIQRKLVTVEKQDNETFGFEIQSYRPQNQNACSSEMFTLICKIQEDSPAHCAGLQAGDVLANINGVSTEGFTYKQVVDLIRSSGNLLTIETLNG

[3] = biological target: T3, GST-DLG5 (p-dlg) PDZ domain fusion protein (Human, UniProt Q8TDM6 1343-1583); assay: A/G plate assays, Table 2 matrix
T3 construct: also called Human discs large protein p-dlg; not shown: glutathione S-transferase encoded by vector pGEX-3X (Pharmacia)
T3 sequence: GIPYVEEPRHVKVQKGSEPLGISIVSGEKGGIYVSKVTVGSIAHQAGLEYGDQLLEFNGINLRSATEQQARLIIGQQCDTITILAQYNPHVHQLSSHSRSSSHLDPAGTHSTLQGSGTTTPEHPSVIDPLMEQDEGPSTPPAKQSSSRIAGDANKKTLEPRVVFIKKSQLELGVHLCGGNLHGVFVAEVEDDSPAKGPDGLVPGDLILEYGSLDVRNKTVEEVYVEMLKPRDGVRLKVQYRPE

[4] = biological target: T4, GST-mouse syntenin fusion protein (Mus musculus, UniProt O08992 108-286); assay: A/G plate assays, Table 2 matrix
T4 construct: also called Mus musculus Syntenin; not shown: glutathione S-transferase encoded by vector pGEX-3X (Pharmacia)
T4 chain: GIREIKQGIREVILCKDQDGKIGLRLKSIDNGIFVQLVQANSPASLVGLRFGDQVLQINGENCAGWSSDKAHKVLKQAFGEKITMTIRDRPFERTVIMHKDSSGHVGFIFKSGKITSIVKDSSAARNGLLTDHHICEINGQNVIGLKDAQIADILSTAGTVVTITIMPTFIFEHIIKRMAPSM

[5] = biological target: T5, KIAA0807 (PDZ domain)-GST fusion protein (human, UniProt Q6P0Q8 1104-1192); assay: G assay on KIAA0807:GST fusion protein, 1 uM labeled peptide
T5 construct: also called K807; KIAA807; not shown: glutathione S-transferase encoded by vector pGEX-3X (Pharmacia)
T5 sequence: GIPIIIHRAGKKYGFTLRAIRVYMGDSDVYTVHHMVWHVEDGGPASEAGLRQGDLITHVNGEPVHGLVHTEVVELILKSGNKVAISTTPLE

[6] = biological target: T6, GST-DVL1 PDZ domain fusion protein (human, UniProt O14640 247-339); assay: A/G plate assays, Table 2 matrix
T6 construct: also called human dishevelled segment polarity protein homolog; not shown: glutathione S-transferase encoded by vector pGEX-3X (Pharmacia)
T6 sequence: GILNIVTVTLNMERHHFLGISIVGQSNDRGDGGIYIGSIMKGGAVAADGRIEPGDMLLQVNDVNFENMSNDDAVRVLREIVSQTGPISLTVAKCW

B1: Spectrin (beta) C-terminal peptide AA32L, biotinylated (peptide)
peptide: Biotin-SFPPCGHRENVPGQSLVSFV
notes: Marked (S), sticky; also called Spectrin beta (S); Spectrin β
binding result [1]: binds | binding result [2]: binds | binding result [3]: binds

Binder: Biotin-QFMTADETRNLQNVDMKIGV (also called CD44 (long form)) [CD44 C-terminal peptide AA9L, biotinylated]
binding result [4]: binds

Next, values leading:

binding result [5]: binds
Binder: Biotin-PSWRRSSLSESENATSLTTF (also called CXCR5) [BLR-1 C-terminal peptide AA45L, biotinylated]

binding result [6]: binds
Binder: Biotin-TTNNNPNSAVNIKKIFTDV [KV1.3 C-terminal peptide AA33L, biotinylated]
